Neutralization IC50 data for 8 molecules are collected here from patent US20180171001A1.

What all share (experiment): cell-based or functional assay
Test [1] deals with Env of HIV-1 strain 231965.c1 (HIV-1).
Test [2] addresses Env of HIV-1 strain 3365.v2.c20 (HIV-1).
Test [3] has as its target Env of HIV-1 strain 250-4 (HIV-1).
Test [4] has as its target Env of HIV-1 strain PVO.4 (HIV-1).
The target of test [5] is Env of HIV-1 strain Du172.17 (HIV-1).
The target in test [6] is Env of HIV-1 strain 3016.v5.c45 (HIV-1).
The target in test [7] is Env of HIV-1 strain ZM109F.PB4 (HIV-1).
Test [8] concerns the target Env of HIV-1 strain 251-18 (HIV-1).
Test [9] has as its target Env of HIV-1 strain H086.8 (HIV-1).
The target of test [10] is Env of HIV-1 strain YU2.DG (HIV-1).
Test [11] deals with Env of HIV-1 strain X1254_c3 (HIV-1).
For test [12], the target named is Env of HIV-1 strain R1166.c1 (HIV-1).
Test [13] has as its target Env of HIV-1 strain ZM53M.PB12 (HIV-1).
The target in test [14] is Env of HIV-1 strain REJO4541.67 (HIV-1).
The next test deals with Env of MuLV.
The target of test [15] is Env of HIV-1 strain 3415.v1.c1 (HIV-1).

B1: γ59κ3 (antibody, V domains shown)
VH: QIHLVQSGTEVKKPGSSVTVSCKAYGVNTFGLYAVNWVRQAPGQGLEYIGQIWRWKSSASHHFRGRVLISAVDLTGSSPPISSLEIKNVTSDDTAVYFCTTTSTYDEWSDLHHDGVMAFSSWGQGTLISVSA
VL: DIQMTQSPSTLSASIGDTVRISCRASQSITGNWLAWYHQRPGKAPRLLIYRGSRLLGGVPSRFSGSAAGTDFTLTIANLQAEDFGTFYCQQYDTYPGTFGQGTKVEVKR
Turning to B1, the neutralization IC50 in test [1], in [2], in [3], in test [4], in [5] and in test [6] was > 15 µg/mL each time. In addition, the neutralization IC50 is > 15 µg/mL in [7]; > 15 µg/mL in test [8]; > 15 µg/mL in test [9]; 8.97 µg/mL in test [10]; 3.39 µg/mL in test [11]; 24.2 µg/mL in test [12]. The neutralization IC50 in test [13] is > 15 µg/mL; in test [14], 8.54 µg/mL; in the test with Env of MuLV it was > 30 µg/mL; in [15], > 15 µg/mL.

B2: γ3κ3 (antibody, V domains shown)
VH: QIHLVQSGTEVKKPGSSVTVSCKAYGVNTFGLYAVSWVRQAPGQRLEYIGQIRRWKSSASHHFRGRVTVSAVDPTGSSPPISSLEIRDLTTDDTAVYFCTTTSTSDYWSGLHNERGTAFSSWGQGTLISVSA
VL: DIQMTQSPSTLSASIGDTVRISCRASQSITGNWLAWYHQRPGKAPRLLIYRGSRLLGGVPSRFSGSAAGTDFTLTIANLQAEDFGTFYCQQYDTYPGTFGQGTKVEVKR
For the molecule B2, the neutralization IC50 in [1] was 0.727 µg/mL; in test [2] it was > 15 µg/mL; in test [3], > 15 µg/mL; in test [4], 0.17 µg/mL; in [5] it was > 15 µg/mL; in test [6] it was 0.347 µg/mL. Further, the neutralization IC50 was > 15 µg/mL in [7]; > 15 µg/mL in test [8]; 3.31 µg/mL in test [9]; 0.42 µg/mL in [10]; 1.82 µg/mL in test [11]; 2.2 µg/mL in [12]. Besides, the neutralization IC50 in [13] was > 15 µg/mL; in test [14], 0.26 µg/mL; with Env of MuLV, > 30 µg/mL; in test [15], > 15 µg/mL.

B3: 8ANC3430 (antibody, V domains shown)
VH: QIHLVQSGTEVKKPGSSVTVSCKAYGVNTFGLYAVNWVRQAPGQSLEYIGQIWRWKSSASHHFRGRVIISAVDLTGSSPPISSLEIKNLTSDDTAVYFCTTTSTSDYWSGLHHDGVMAFSSWGQGTLISVSA
VL: DIQMTQSPSTLSASVGDTVRISCRASQSITGGWLAWYHQRPGKAPRLLIYRGSRLLGGVPSRFSGSAAGTDFTLTIANLQAEDFGTFYCQQYDTYPGTFGQGTKVEVKR
As to B3, the neutralization IC50 is 1.19 µg/mL in [1]; > 23 µg/mL in test [2]; > 23 µg/mL in [3]; 0.206 µg/mL in test [4]; > 23 µg/mL in [5]; 0.271 µg/mL in test [6]. The neutralization IC50 in test [7] was > 23 µg/mL; in test [8] it was 6.17 µg/mL; in [9], > 23 µg/mL; in test [10], 0.545 µg/mL; in [11] it was 4.28 µg/mL; in [12], 3.64 µg/mL. For the same molecule, the neutralization IC50 in test [13] was > 23 µg/mL; in [14], 0.198 µg/mL; in the test with Env of MuLV, > 23 µg/mL; in test [15] it was > 23 µg/mL.

B4: 8ANC3044 (antibody, V domains shown)
VH: QIHLVQSGTEVRKPGSSVTVSCKAYGVNTFGLYAVNWVRQAPGQSLEYIGQIWRWKSSASHHFRGRVLISAVDLTGSSPPISSLEIKNLTSDDTAVYFCTTTSTYDKWSGLHHDGVMAFSSWGQGTLISVSA
VL: DIQMTQSPSTLSASIGDTVRISCRASQSITGNWVAWYQQRPGKAPRLLIYRGAALLGGVPSRFSGSAAGTDFTLTIGNLQTEDFGTFYCQQYDTYPGTFGQGTKVEVKR
Consider B4, for which the neutralization IC50 in [1] was 1.33 µg/mL; in test [2], > 30 µg/mL; in [3], > 30 µg/mL; in [4] it was 0.26 µg/mL; in test [5], > 30 µg/mL; in test [6], 0.242 µg/mL. For the same molecule, the neutralization IC50 in test [7] was > 30 µg/mL; in [8], 0.858 µg/mL; in test [9] it was 3.83 µg/mL; in [10] it was 0.747 µg/mL; in test [11] it was 4.54 µg/mL; in test [12], 2.38 µg/mL. Further, the neutralization IC50 in test [13] was 15.2 µg/mL; in [14], 0.278 µg/mL; in the test with Env of MuLV, > 30 µg/mL; in test [15], 7.56 µg/mL.

B5: γ3κ5 (antibody, V domains shown)
VH: QIHLVQSGTEVKKPGSSVTVSCKAYGVNTFGLYAVSWVRQAPGQRLEYIGQIRRWKSSASHHFRGRVTVSAVDPTGSSPPISSLEIRDLTTDDTAVYFCTTTSTSDYWSGLHNERGTAFSSWGQGTLISVSA
VL: DIQMTQSPSTLSASTGDTVRISCRASQSITGNWVAWYQQRPGKAPRLLIYRGAALLGGVPSRFRGSAAGTDFTLTIGNLQAEDFGTFYCQQYDTYPGTFGQGTKVEVKR
On to B5, for which the neutralization IC50 in test [1] was 0.697 µg/mL; in test [2], > 15 µg/mL; in [3] it was > 15 µg/mL; in test [4], 0.081 µg/mL; in test [5], 3.73 µg/mL; in [6], 0.314 µg/mL. Besides, the neutralization IC50 is > 15 µg/mL in test [7]; 0.721 µg/mL in [8]; 0.434 µg/mL in test [9]; 0.2 µg/mL in test [10]; 1.72 µg/mL in test [11]; 2.07 µg/mL in test [12]. Also, the neutralization IC50 in [13] is > 15 µg/mL; in test [14], 0.097 µg/mL; with Env of MuLV, > 15 µg/mL; in test [15] it was > 15 µg/mL.

B6: 8ANC3484 (antibody, V domains shown)
VH: QIHLVQSGTEVKKPGSSVTVSCKAYGVNTFGLYAVNWVRQAPGQSLEYIGQIWRWKSSASHHFRGRVLISAVDLTGSSPPISSLEIKNLTSDDTAVYFCTTTSTYDRWSGLHHDGVMAFSSWGQGTLISVSA
VL: DIQMTQSPSTLSASIGDTVRISCRASQSITGNWVAWYQQRPGKAPRLLIYRGAALLGGVPSRFRGSAAGTDFTLTIGNLQAEDFGTFYCQQYDTYPGTFGQGTKVEVKR
Take B6: the neutralization IC50 was 0.294 µg/mL in test [1]; > 30 µg/mL in test [2]; > 30 µg/mL in test [3]; 0.077 µg/mL in [4]; 4.01 µg/mL in test [5]; 0.131 µg/mL in [6]. The neutralization IC50 in [7] was > 30 µg/mL; in [8], 0.391 µg/mL; in test [9] it was 0.394 µg/mL; in test [10], 0.461 µg/mL; in test [11], 2.19 µg/mL; in test [12], 1.03 µg/mL. For the same molecule, the neutralization IC50 in [13] is 11.6 µg/mL; in test [14], 0.117 µg/mL; with Env of MuLV, > 30 µg/mL; in test [15] it was 0.589 µg/mL.

B7: γ22κ5 (antibody, V domains shown)
VH: QIHLVQSGTEVKKPGSSVTVSCKAYGVNTFGLYAVNWVRQAPGQSLEYIGQIWRWKSSASHHFRGRVLISAVDLTGPSPPISSLEIKNLTSDDTAVYFCTTTSTYDKWSGLHHDGVMAFSSWGQGTLISVSA
VL: DIQMTQSPSTLSASTGDTVRISCRASQSITGNWVAWYQQRPGKAPRLLIYRGAALLGGVPSRFRGSAAGTDFTLTIGNLQAEDFGTFYCQQYDTYPGTFGQGTKVEVKR
For B7, the neutralization IC50 is 0.69 µg/mL in [1]; > 15 µg/mL in test [2]; > 15 µg/mL in [3]; 0.352 µg/mL in test [4]; > 15 µg/mL in test [5]; 0.103 µg/mL in test [6]. The neutralization IC50 in [7] was > 15 µg/mL; in test [8], 1.7 µg/mL; in test [9], > 15 µg/mL; in [10], 0.569 µg/mL; in test [11] it was 1.52 µg/mL; in [12], 2.4 µg/mL. Also, the neutralization IC50 in test [13] is > 15 µg/mL; in test [14] it was 0.795 µg/mL; with Env of MuLV it was > 30 µg/mL; in [15], > 15 µg/mL.

B8: 8ANC3630 (antibody, V domains shown)
VH: QIHLVQSGTEVKKPGSSVTVSCKAYGVNTFGLYAVNWVRQAPGQSLEYIGQIWRWKSSASHHFRGRVLISAVDLTGSSPPISSLEIKNLTSDDTAVYFCTTTSTYDRWSGLHHDGVMAFSSWGQGTLISVSA
VL: DIQMTQSPSTLSASIGDTVRISCRASQSITGGWLAWYHQRPGKAPRLLIYRGSRLLGGVPSRFSGSAAGTDFTLTIANLQAEDFGTFYCQQYDTYPGTFGQGTKVEVKR
Consider B8, for which the neutralization IC50 in test [1] was 0.375 µg/mL; in test [2], > 30 µg/mL; in test [3] it was > 30 µg/mL; in [4], 0.102 µg/mL; in test [5] it was > 30 µg/mL; in test [6] it was 0.136 µg/mL. Besides, the neutralization IC50 in test [7] is > 30 µg/mL; in [8], 0.73 µg/mL; in test [9], 0.3 µg/mL; in test [10], 0.468 µg/mL; in [11] it was 2.38 µg/mL; in test [12] it was 1.45 µg/mL. Also, the neutralization IC50 is > 30 µg/mL in test [13], 2.65 µg/mL in [14], > 30 µg/mL with Env of MuLV and 28 µg/mL in [15].
